Six proteins from ChEMBL document CHEMBL3526061, “Glucuronidation of edaravone by human liver and kidney microsomes: biphasic kinetics and identification of UGT1A9 as the major UDP-glucuronosyltransferase isoform” (Drug Metab Dispos, 2012) can be followed below.

Substrate in series [1]: CC1=NN(c2ccccc2)C(=O)C1
As to the kind of experiment: Activity of human recombinant UGT2B7 expressed in insect cells assessed as enzyme mediated glucuronidation by LC-MS/MS method. The format is ADME.

Substrate in series [2]: CC1=NN(c2ccccc2)C(=O)C1
Description: Activity of human recombinant UGT2B17 expressed in insect cells assessed as enzyme mediated glucuronidation by LC-MS/MS method. The format is ADME.

Substrate in series [3]: CC1=NN(c2ccccc2)C(=O)C1
As to the kind of experiment: Activity of human recombinant UGT1A1 expressed in insect cells assessed as enzyme mediated glucuronidation by LC-MS/MS method. It is filed as ADME.

Substrate in series [4]: CC1=NN(c2ccccc2)C(=O)C1
As to the kind of experiment: Activity of human recombinant UGT1A7 expressed in insect cells assessed as enzyme mediated glucuronidation by LC-MS/MS method. It is filed as ADME.

Substrate in series [5]: CC1=NN(c2ccccc2)C(=O)C1
As to the kind of experiment: Activity of human recombinant UGT1A6 expressed in insect cells assessed as enzyme mediated glucuronidation by LC-MS/MS method. The format is ADME.

Substrate in series [6]: COc1c(C)c2c(c(O)c1C/C=C(\C)CCC(=O)O)C(=O)OC2
As to the kind of experiment: Activity of human recombinant UGT1A9 expressed in insect cells assessed as enzyme mediated glucuronidation by LC-MS/MS method. It is filed as ADME.

Substrate in the series “not read”: CC(C)c1cccc(C(C)C)c1O
Description: not read.

B1: UDP-glucuronosyltransferase 2B7 (Homo sapiens) (protein)
chain: MSVKWTSVILLIQLSFCFSSGNCGKVLVWAAEYSHWMNIKTILDELIQRGHEVTVLASSASILFDPNNSSALKIEIYPTSLTKTELENFIMQQIKRWSDLPKDTFWLYFSQVQEIMSIFGDITRKFCKDVVSNKKFMKKVQESRFDVIFADAIFPCSELLAELFNIPFVYSLSFSPGYTFEKHSGGFIFPPSYVPVVMSELTDQMTFMERVKNMIYVLYFDFWFEIFDMKKWDQFYSEVLGRPTTLSETMGKADVWLIRNSWNFQFPYPLLPNVDFVGGLHCKPAKPLPKEMEDFVQSSGENGVVVFSLGSMVSNMTEERANVIASALAQIPQKVLWRFDGNKPDTLGLNTRLYKWIPQNDLLGHPKTRAFITHGGANGIYEAIYHGIPMVGIPLFADQPDNIAHMKARGAAVRVDFNTMSSTDLLNALKRVINDPSYKENVMKLSRIQHDQPVKPLDRAVFWIEFVMRHKGAKHLRVAAHDLTWFQYHSLDVIGFLLVCVATVIFIVTKCCLFCFWKFARKAKKGKND
For the protein B1, in series [1], the Km is 2380 µM and the Vmax was 1.77e-06 µmol/min/mg.

B2: UDP-glucuronosyltransferase 2B17 (Homo sapiens) (protein)
chain: MSLKWMSVFLLMQLSCYFSSGSCGKVLVWPTEYSHWINMKTILEELVQRGHEVIVLTSSASILVNASKSSAIKLEVYPTSLTKNDLEDFFMKMFDRWTYSISKNTFWSYFSQLQELCWEYSDYNIKLCEDAVLNKKLMRKLQESKFDVLLADAVNPCGELLAELLNIPFLYSLRFSVGYTVEKNGGGFLFPPSYVPVVMSELSDQMIFMERIKNMIYMLYFDFWFQAYDLKKWDQFYSEVLGRPTTLFETMGKAEMWLIRTYWDFEFPRPFLPNVDFVGGLHCKPAKPLPKEMEEFVQSSGENGIVVFSLGSMISNMSEESANMIASALAQIPQKVLWRFDGKKPNTLGSNTRLYKWLPQNDLLGHPKTKAFITHGGTNGIYEAIYHGIPMVGIPLFADQHDNIAHMKAKGAALSVDIRTMSSRDLLNALKSVINDPIYKENIMKLSRIHHDQPVKPLDRAVFWIEFVMRHKGAKHLRVAAHNLTWIQYHSLDVIAFLLACVATMIFMITKCCLFCFRKLAKTGKKKKRD
Turning to B2, in series [2], the Michaelis-Menten constant (Km) turned out to be 129 µM and the maximum rate (Vmax) amounted to 4.29e-07 µmol/min/mg.

B3: UDP-glucuronosyltransferase 1A1 (Homo sapiens) (protein)
chain: MAVESQGGRPLVLGLLLCVLGPVVSHAGKILLIPVDGSHWLSMLGAIQQLQQRGHEIVVLAPDASLYIRDGAFYTLKTYPVPFQREDVKESFVSLGHNVFENDSFLQRVIKTYKKIKKDSAMLLSGCSHLLHNKELMASLAESSFDVMLTDPFLPCSPIVAQYLSLPTVFFLHALPCSLEFEATQCPNPFSYVPRPLSSHSDHMTFLQRVKNMLIAFSQNFLCDVVYSPYATLASEFLQREVTVQDLLSSASVWLFRSDFVKDYPRPIMPNMVFVGGINCLHQNPLSQEFEAYINASGEHGIVVFSLGSMVSEIPEKKAMAIADALGKIPQTVLWRYTGTRPSNLANNTILVKWLPQNDLLGHPMTRAFITHAGSHGVYESICNGVPMVMMPLFGDQMDNAKRMETKGAGVTLNVLEMTSEDLENALKAVINDKSYKENIMRLSSLHKDRPVEPLDLAVFWVEFVMRHKGAPHLRPAAHDLTWYQYHSLDVIGFLLAVVLTVAFITFKCCAYGYRKCLGKKGRVKKAHKSKTH
Take B3: in series [3], the Km was found to be 285 µM and the Vmax came to 4.52e-08 µmol/min/mg.

B4: UDP-glucuronosyltransferase 1A7 (Homo sapiens) (protein)
chain: MARAGWTGLLPLYVCLLLTCGFAKAGKLLVVPMDGSHWFTMQSVVEKLILRGHEVVVVMPEVSWQLGRSLNCTVKTYSTSYTLEDQDREFMVFADARWTAPLRSAFSLLTSSSNGIFDLFFSNCRSLFNDRKLVEYLKESCFDAVFLDPFDACGLIVAKYFSLPSVVFARGIFCHYLEEGAQCPAPLSYVPRLLLGFSDAMTFKERVWNHIMHLEEHLFCPYFFKNVLEIASEILQTPVTAYDLYSHTSIWLLRTDFVLEYPKPVMPNMIFIGGINCHQGKPVPMEFEAYINASGEHGIVVFSLGSMVSEIPEKKAMAIADALGKIPQTVLWRYTGTRPSNLANNTILVKWLPQNDLLGHPMTRAFITHAGSHGVYESICNGVPMVMMPLFGDQMDNAKRMETKGAGVTLNVLEMTSEDLENALKAVINDKSYKENIMRLSSLHKDRPVEPLDLAVFWVEFVMRHKGAPHLRPAAHDLTWYQYHSLDVIGFLLAVVLTVAFITFKCCAYGYRKCLGKKGRVKKAHKSKTH
As for B4, in series [4], the Km was 432 µM and the Vmax turned out to be 7.4e-07 µmol/min/mg.

B5: UDP-glucuronosyltransferase 1A6 (Homo sapiens) (protein)
chain: MACLLRSFQRISAGVFFLALWGMVVGDKLLVVPQDGSHWLSMKDIVEVLSDRGHEIVVVVPEVNLLLKESKYYTRKIYPVPYDQEELKNRYQSFGNNHFAERSFLTAPQTEYRNNMIVIGLYFINCQSLLQDRDTLNFFKESKFDALFTDPALPCGVILAEYLGLPSVYLFRGFPCSLEHTFSRSPDPVSYIPRCYTKFSDHMTFSQRVANFLVNLLEPYLFYCLFSKYEELASAVLKRDVDIITLYQKVSVWLLRYDFVLEYPRPVMPNMVFIGGINCKKRKDLSQEFEAYINASGEHGIVVFSLGSMVSEIPEKKAMAIADALGKIPQTVLWRYTGTRPSNLANNTILVKWLPQNDLLGHPMTRAFITHAGSHGVYESICNGVPMVMMPLFGDQMDNAKRMETKGAGVTLNVLEMTSEDLENALKAVINDKSYKENIMRLSSLHKDRPVEPLDLAVFWVEFVMRHKGAPHLRPAAHDLTWYQYHSLDVIGFLLAVVLTVAFITFKCCAYGYRKCLGKKGRVKKAHKSKTH
For the protein B5, in series [5], the Km worked out at 778 µM and the Vmax is 1.24e-06 µmol/min/mg.

B6: UDP-glucuronosyltransferase 1A9 (Homo sapiens) (protein)
chain: MACTGWTSPLPLCVCLLLTCGFAEAGKLLVVPMDGSHWFTMRSVVEKLILRGHEVVVVMPEVSWQLGRSLNCTVKTYSTSYTLEDLDREFKAFAHAQWKAQVRSIYSLLMGSYNDIFDLFFSNCRSLFKDKKLVEYLKESSFDAVFLDPFDNCGLIVAKYFSLPSVVFARGILCHYLEEGAQCPAPLSYVPRILLGFSDAMTFKERVRNHIMHLEEHLLCHRFFKNALEIASEILQTPVTEYDLYSHTSIWLLRTDFVLDYPKPVMPNMIFIGGINCHQGKPLPMEFEAYINASGEHGIVVFSLGSMVSEIPEKKAMAIADALGKIPQTVLWRYTGTRPSNLANNTILVKWLPQNDLLGHPMTRAFITHAGSHGVYESICNGVPMVMMPLFGDQMDNAKRMETKGAGVTLNVLEMTSEDLENALKAVINDKSYKENIMRLSSLHKDRPVEPLDLAVFWVEFVMRHKGAPHLRPAAHDLTWYQYHSLDVIGFLLAVVLTVAFITFKCCAYGYRKCLGKKGRVKKAHKSKTH
For the protein B6, the Km in series [6] amounted to 160 µM; in the series “not read” it was 41 µM.
